Article doi:10.1101/2021.06.29.450403

Target: recombinant rAQP4ct protein (complete cytosolic C-terminal domain of human AQP4, residues 254-323) (human) (UniProt P55087)
Assay: ITC

“Chicken calmodulin (CaM) (from UniProt P62149 1-149) (natural protein)” showed a stoichiometry N of 1.
